Measured values from patent US20180043012A1 (CSL BEHRING RECOMBINANT FACILITY, published 2018).

Tests used:
[1] = molecular target: T1, purified monomeric human VWF (von Willebrand factor) (human, UniProt P04275 764-2813, limits assumed); assay: SPR, MGL1 immobilized on CM3 chip, fit of the dissociation phase alone
T1 construct: Analyte in the mobile phase in all SPR experiments; Background text says mature plasma VWF is the 2050-residue polypeptide; also called VWF monomers; monomeric VWF

[2] = molecular target: T1, purified monomeric human VWF (von …); assay: SPR, CLEC10A immobilized on CM3 chip, fit of the dissociation phase alone
Description: Interaction analysis cycles consisted of a 5 min sample injection phase. In this association phase, VWF bound to CLEC10A immobilized on the surface, and increased the surface mass. This phase was followed by a dissociation phase of 17 min in running buffer. In the dissociation phase, the sample was replaced by running buffer and the dissociated VWF was removed from the surface, resulting in a decreased surface mass. All samples were tested as repeat determination. […] Although kinetic data were analyzed using Biacore T200 Evaluation Software Version 1.0 (GE Healthcare Biosciences, Uppsala, Sweden), the data set was only used for information purpose.
SPR was predominantly used as mass detector. An interaction of VWF with CLEC10A was detected by an increase in accumulating mass and specific binding was identified by subtracting the binding response recorded from the control surface, followed by subtracting an average of the buffer blank injections. A time point was positioned 20 seconds after the end of sample injection and was evaluated as representative for a stable protein-ligand interaction, which was of interest. […] Furthermore, testing was performed at least in duplicate and the response was calculated relative to the baseline in each case. […] Moreover, dissociation rate constants (off-rate) were calculated by fitting the dissociation phase alone. […]

| Binder | koff [1] [s⁻¹] | koff [2] [s⁻¹] |
| --- | --- | --- |
| mouse MGL1 (CLEC10A orthologous mouse receptor protein) (receptor, UniProt P49300 57-304, looked up) QNSQLRRDLGTLRATLDNTTSKIKAEFQSLDSRADSFEKGISSLKVDVEDHRQELQAGRDLSQKVTSLESTVEKREQALKTDLSDLTDHVQQLRKDLKALTCQLANLKNNGSEVACCPLHWTEHEGSCYWFSESEKSWPEADKYCRLENSHLVVVNSLEEQNFLQNRLANVVSWIGLTDQNGPWRWVDGTDFEKGFKNWAPLQPDNWFGHGLGGGEDCAHITTGGPWNDDVCQRTFRWICEMKLAKES | 0.000406 |  |
| recombinant human CLEC10A, extracellular domain (R&D Systems) (receptor, UniProt Q8IUN9 61-316, looked up, extracellular domain; also called macrophage Gal-type lectin; CD301) QNSKFQRDLVTLRTDFSNFTSNTVAEIQALTSQGSSLEETIASLKAEVEGFKQERQAGVSELQEHTTQKAHLGHCPHCPSVCVPVHSEMLLRVQQLVQDLKKLTCQVATLNNNASTEGTCCPVNWVEHQDSCYWFSHSGMSWAEAEKYCQLKNAHLVVINSREEQNFVQKYLGSAYTWMGLSDPEGAWKWVDGTDYATGFQNWKPGQPDDWQGHGLGGGEDCAHFHPDGRWNDDVCQRPYHWVCEAGLGQTSQESH |  | 0.00051 |
